Measurements reported in US20220177587A1, “METHODS AND USES OF VARIANT CD80 FUSION PROTEINS AND RELATED CONSTRUCTS” (Alpine Immune Sciences, Inc., priority 2018, published 2022).

Experiments:
CD28 [1] = molecular target: T1, CD28 (Homo sapiens, UniProt P10747); test: Flow binding to Jurkat/IL2 reporter cells (CD28); set-up: host or cells: Jurkat cells expressing an IL-2-luciferase reporter; conditions: for CD28 Fold change to WT CD80: MFI at 33.3 nM relative to CD80 WT IgV-Fc
Description: (§1) Binding of selected immunomodulatory fusion proteins to cognate binding partners was assessed. […] Cells were sorted in a Bio-Rad S3 Cell Sorter (Bio-Rad Corp., USA) to >98% purity. Jurkat/IL2 reporter cells, which endogenously express CD28, were used to detect binding to CD28.
(§2) For staining and analysis by flow cytometry, 100,000 cells of appropriate transfected cells were plated in 96-well round bottom plates. Cells were spun down and resuspended in staining buffer (phosphate buffered saline (PBS), 1% bovine serum albumin (BSA), and 0.1% sodium azide) for 20 minutes to block non-specific binding. […] Primary staining was performed on ice for 45 minutes, before washing cells in staining buffer twice. Phycoerythrin (PE)-conjugated anti-human Fc (Jackson ImmunoResearch, USA) was diluted 1:150, added to cells and incubated another 30 minutes on ice. Cells were then washed twice with 150 μL/well stain buffer, fixed in 2% formaldehyde/PBS, and analyzed on Intellicyt flow cytometer (Intellicyt Corp., USA). PE Mean Fluorescence Intensity (MFI) was calculated for each cell type with FlowJo Version 10 software (FlowJo LLC, USA).
(§3) Binding assays were carried out to assess the specificity and affinity of multivalent proteins to cell-expressed CTLA-4, CD28, and PD-L1 counter structures.
(§4) The EC50 for binding also was determined.

CD28 [2] = molecular target: T1, CD28; test: Jurkat/IL2 + CHO/OKT3 +/- PD-L1 reporter assay: PD-L1-dependent CD28 costimulation; type: cell-based; set-up: host or cells: Jurkat cells expressing an IL-2-luciferase reporter; conditions: Jurkat/IL2 + CHO/OKT3/PD-L1
Description: Jurkat cells were then plated at 50 μL/well for a total of 100,000 cells per well.
To each well, 25 μL of test protein was added to the Jurkat cells. […] The Jurkat cells with test or control proteins were incubated for 15 minutes at room temperature. CHO-derived artificial antigen presenting cells (aAPC) displaying transduced cell surface anti-CD3 single chain Fv (OKT3) (i.e., no PD-L1), or OKT3 and PD-L1 (i.e., +PD-L1), were brought to 0.8×10^6 cells/mL, and 25 μL of cells were added to each well, bringing the final volume of each well to 100 μL. […] Jurkat cells and CHO cells were incubated for 5 hours at 37 degrees Celsius in a humidified 5% CO2 incubation chamber. Plates were then removed from the incubator and acclimated to room temperature for 15 minutes. 100 μL of a cell lysis and luciferase substrate solution (BioGlo luciferase reagent, Promega) were added to each well and the plates were incubated on an orbital shaker for 10 minutes. Luminescence was measured with a 1 second per well integration time using a BioTek Cytation luminometer, and a relative luminescence value (RLU) was determined for each test sample.

huCTLA4 = huCTLA4 (Homo sapiens, UniProt P16410); test: Flow binding to CHO cells stably expressing CTLA4; set-up: huCTLA4 and huPD-L1, full-length mammalian surface expression constructs were generated; expressed in transfected cells; host or cells: CHO cells, lentiviral transduction, sorted to >98% purity; conditions: for CTLA4 MFI at 33.3 nM: CHO cells stably expressing CTLA4; for CTLA4 Fold change to WT CD80: MFI at 33.3 nM relative to CD80 WT IgV-Fc
Sequence of huCTLA4 (P16410 36-223): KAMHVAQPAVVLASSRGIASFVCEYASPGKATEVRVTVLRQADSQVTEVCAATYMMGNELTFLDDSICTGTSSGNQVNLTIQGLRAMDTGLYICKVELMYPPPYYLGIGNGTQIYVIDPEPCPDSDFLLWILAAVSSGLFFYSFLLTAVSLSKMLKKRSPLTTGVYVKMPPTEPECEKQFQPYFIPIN
Description: as §1, §2, §3, §4

huPD-L1 = huPD-L1 (Homo sapiens, UniProt Q9NZQ7); test: Flow binding to CHO cells stably expressing PD-L1; set-up: huCTLA4 and huPD-L1, full-length mammalian surface expression constructs were generated; expressed in transfected cells; host or cells: CHO cells, lentiviral transduction, sorted to >98% purity; conditions: for PD-L1 MFI at 33.3 nM: CHO cells stably expressing PD-L1; for PD-L1 Fold change to WT CD80: MFI at 33.3 nM relative to CD80 WT IgV-Fc; for Ratio of PDL1:CD28: ratio of MFI at 33.3 nM
Sequence of huPD-L1 (Q9NZQ7 19-290): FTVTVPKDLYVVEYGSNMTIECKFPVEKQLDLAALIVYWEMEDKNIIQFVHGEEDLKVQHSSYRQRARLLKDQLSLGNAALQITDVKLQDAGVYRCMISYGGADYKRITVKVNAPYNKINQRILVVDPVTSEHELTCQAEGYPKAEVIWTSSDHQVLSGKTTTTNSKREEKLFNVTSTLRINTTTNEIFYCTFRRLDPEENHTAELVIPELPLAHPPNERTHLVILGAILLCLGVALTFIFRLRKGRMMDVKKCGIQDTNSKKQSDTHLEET
Description: as §1, §2, §3, §4

[3] = Table E20, Jurkats (CD28), 33.3 nM
[4] = Table E23, CD80 IgV-Fc (inert) at 33.3 nM, Jurkat (CD28)
[5] = Table E23, CD80 IgV-Fc (inert) at 33.3 nM

Substance	CD28 MFI at 33.3 nM (CD28 [1]; [3])	CD28 Fold change to WT CD80 (CD28 [1]; Table E20) [fold]	Fold Increase over WT CD80-IgV-Fe (CD28 [2]; Table E22, 5.0 nM) [fold]	Relative Luciferase Units (RLU), CD80 Conc 5.0 nM (CD28 [2]; Table E22, CD80 Conc 5.0 nM) [RLU]	CTLA4 MFI at 33.3 nM (huCTLA4; Table E20, 33.3 nM)	CTLA4 Fold change to WT CD80 (huCTLA4; Table E20) [fold]	PD-L1 MFI at 33.3 nM (huPD-L1; Table E20, 33.3 nM)	PD-L1 Fold change to WT CD80 (huPD-L1; Table E20) [fold]	Ratio of PDL1:CD28 (huPD-L1; Table E20)	CD28 MFI at 33.3 nM (CD28 [1]; [4])	CD28 Fold change to WT CD80 (CD28 [1]; Table E23)	Fold Increase over WT CD80-IgV-Fe (CD28 [2]; Table E24, 5.0 nM)	Relative Luciferase Units (RLU), CD80 Conc 5.0 nM (CD28 [2]; Table E24, 5.0 nM) [RLU]	CTLA4 MFI at 33.3 nM (huCTLA4; [5])	CTLA4 Fold change to WT CD80 (huCTLA4; Table E23)	PD-L1 MFI at 33.3 nM (huPD-L1; [5])	PD-L1 Fold change to WT CD80 (huPD-L1; Table E23)	Ratio of PDL1:CD28 (huPD-L1; Table E23)
A26E/E35D/M47L/V68M/A71G/D90G	2211	50.4	2.86	1117	21749	16.0	30232	693.4	13.7									
A26E/E35D/V68M/A71G/D90G	2102	47.9	2.34	912	23286	17.1	26510	608.0	12.6									
H18A/A26P/E35D/M47L/V68M/A71G/D90G										4731	46.4	5.0	857	23763	17.2	33436	202.6	7.1
H18Y/A26E/E35D/A71G/D90G	1075	24.5	2.45	956	−100	−0.1	14822	340.0	13.8									
H18Y/A26E/E35D/V68M/A71G/D90G	1757	40.0	2.41	940	23386	17.2	28683	657.9	16.3									
H18Y/A26E/M47L/V68M/A71G/D90G	2556	58.2	2.19	853	121	0.1	31716	727.4	12.4									
H18Y/A26E/M47L/V68M/D90G	32	0.7	2.76	1075	28649	21.1	23594	541.1	737.3									
H18Y/A26Q/E35D/M47T/V68M/A71G/D90G										6733	66.0	5.8	994	16652	12.0	24450	148.2	3.6

Other lines, results leading:

CD28 MFI at 33.3 nM (CD28 [1]; [3])	CD28 Fold change to WT CD80 (CD28 [1]; Table E20) [fold]	Fold Increase over WT CD80-IgV-Fe (CD28 [2]; Table E22, 5.0 nM) [fold]	Relative Luciferase Units (RLU), CD80 Conc 5.0 nM (CD28 [2]; Table E22, CD80 Conc 5.0 nM) [RLU]	CTLA4 MFI at 33.3 nM (huCTLA4; Table E20, 33.3 nM)	CTLA4 Fold change to WT CD80 (huCTLA4; Table E20) [fold]	PD-L1 MFI at 33.3 nM (huPD-L1; Table E20, 33.3 nM)	PD-L1 Fold change to WT CD80 (huPD-L1; Table E20) [fold]	Ratio of PDL1:CD28 (huPD-L1; Table E20)	CD28 MFI at 33.3 nM (CD28 [1]; [4])	CD28 Fold change to WT CD80 (CD28 [1]; Table E23)	Fold Increase over WT CD80-IgV-Fe (CD28 [2]; Table E24, 5.0 nM)	Relative Luciferase Units (RLU), CD80 Conc 5.0 nM (CD28 [2]; Table E24, 5.0 nM) [RLU]	CTLA4 MFI at 33.3 nM (huCTLA4; [5])	CTLA4 Fold change to WT CD80 (huCTLA4; Table E23)	PD-L1 MFI at 33.3 nM (huPD-L1; [5])	PD-L1 Fold change to WT CD80 (huPD-L1; Table E23)	Ratio of PDL1:CD28 (huPD-L1; Table E23)	Substance
									4913	48.2	6.2	1054	21360	15.4	36284	219.9	7.4	H18A/A26N/E35D/M47L/V68M/A71G/D90G
									8063	79.0	5.2	883	24919	18.0	73884	447.8	9.2	H18V/A26S/E35D/M47L/V68M/A71G/D90G
379	8.6	2.42	944	19353	14.2	16887	387.3	44.6										H18Y/A26E/E35D/M47L/A71G
1379	31.4	2.37	925	19736	14.5	12698	291.2	9.2										H18Y/A26E/E35D/M47L/D90G
2675	60.9	2.29	893	24855	18.3	25217	578.4	9.4										H18Y/A26E/E35D/M47L/V68M/D90G
394	9.0	2.46	961	19394	14.3	27476	630.2	69.7										H18Y/A26E/E35D/V68M/A71G
2584	58.9	2.69	1049	19331	14.2	23206	532.2	9.0										H18Y/A26E/E35D/V68M/D90G
2683	61.1	2.50	974	18305	13.5	27872	639.3	10.4										H18Y/A26E/V68M/A71G/D90G
928	21.1	2.19	853	23667	17.4	30377	696.7	32.7										H18Y/E35D/M47L/V68M/A71G
